Key:
[1] = target: HLA-A*11:01; assay: IEDB peptide-MHC binding, purified MHC/direct/fluorescence; filed as Kd, often an IC50 or EC50 that approximates it; ≥ and ≤ were set here for values at or beyond the usual limits of such assays
[2] = target: HLA-A*31:01; assay: IEDB peptide-MHC binding, purified MHC/competitive/fluorescence; filed as Kd, often an IC50 or EC50 that approximates it; ≥ and ≤ were set here for values at or beyond the usual limits of such assays
[3] = target: HLA-A*24:03; assay: as above
[4] = target: HLA-B*51:01; assay: as above
[5] = target: HLA-B*15:17; assay: as above
[6] = target: HLA-B*18:01; assay: as above
[7] = target: HLA-B*39:01; assay: as above
[8] = target: HLA-A*03:01; assay: as above
[9] = target: HLA-B*27:03; assay: as above
[10] = target: HLA-B*57:01; assay: as above
[11] = target: HLA-A*26:01; assay: as above
[12] = target: HLA-A*02:01; assay: as above
[13] = target: HLA-A*01:01; assay: IEDB peptide-MHC binding, purified MHC/direct/fluorescence; filed as Kd, often an IC50 or EC50 that approximates it; ≥ and ≤ were set here for values at or beyond the usual limits of such assays
[14] = target: HLA-A*29:02; assay: as above
[15] = target: HLA-B*15:01; assay: as above
[16] = target: HLA-A*69:01; assay: as above
[17] = target: HLA-A*03:01; assay: as above
[18] = target: HLA-A*02:01; assay: as above
[19] = target: HLA-B*27:05; assay: as above
[20] = target: HLA-B*46:01; assay: as above
[21] = target: HLA-A*31:01; assay: as above
[22] = target: HLA-B*18:01; assay: as above
[23] = target: HLA-B*08:02; assay: as above; details: source organism: West Nile virus strain PTRoxo
[24] = target: HLA-B*57:01; assay: as above
[25] = target: HLA-B*58:01; assay: as above
[26] = target: HLA-B*08:01; assay: as above
[27] = target: HLA-B*07:02; assay: as above
[28] = target: HLA-B*15:01; assay: IEDB peptide-MHC binding, purified MHC/competitive/fluorescence; ≥ and ≤ were set here for values at or beyond the usual limits of such assays
[29] = target: HLA-A*02:19; assay: IEDB peptide-MHC binding, purified MHC/direct/fluorescence; filed as Kd, often an IC50 or EC50 that approximates it; ≥ and ≤ were set here for values at or beyond the usual limits of such assays; details: source organism: Salmonella enterica subsp. enterica serovar Typhimurium
[30] = target: HLA-A*29:02; assay: IEDB peptide-MHC binding, purified MHC/competitive/fluorescence; filed as Kd, often an IC50 or EC50 that approximates it; ≥ and ≤ were set here for values at or beyond the usual limits of such assays
[31] = target: HLA-B*48:01; assay: IEDB peptide-MHC binding, purified MHC/direct/fluorescence; filed as Kd, often an IC50 or EC50 that approximates it; ≥ and ≤ were set here for values at or beyond the usual limits of such assays; details: source organism: Orthohantavirus seoulense
[32] = target: HLA-B*44:02; assay: as above; details: source organism: Orthohantavirus seoulense
[33] = target: HLA-A*68:02; assay: as above; details: source organism: Limestone Canyon virus
[34] = target: HLA-A*02:12; assay: as above; details: source organism: Limestone Canyon virus
[35] = target: HLA-B*40:01; assay: as above; details: source organism: Orthohantavirus seoulense
[36] = target: HLA-B*15:03; assay: IEDB peptide-MHC binding, purified MHC/competitive/radioactivity; filed as Kd, often an IC50 or EC50 that approximates it; ≥ and ≤ were set here for values at or beyond the usual limits of such assays; details: source organism: Vaccinia virus WR
[37] = target: HLA-A*11:01; assay: IEDB peptide-MHC binding, purified MHC/competitive/fluorescence; ≥ and ≤ were set here for values at or beyond the usual limits of such assays
[38] = target: HLA-A*02:01; assay: as above
[39] = target: HLA-A*24:02; assay: as above
[40] = target: HLA-A*30:01; assay: IEDB peptide-MHC binding, purified MHC/competitive/fluorescence; filed as Kd, often an IC50 or EC50 that approximates it; ≥ and ≤ were set here for values at or beyond the usual limits of such assays; details: source organism: Nostoc punctiforme PCC 73102
[41] = source organism: Yellow fever virus
[42] = source organism: Influenza A virus (A/chicken/Viet Nam/DT-015/2004(H5N1))
[43] = source organism: West Nile virus
[44] = source organism: Salmonella enterica subsp. enterica serovar Typhimurium
[45] = source organism: Orthohantavirus seoulense
[46] = source organism: Vaccinia virus
[47] = source organism: Vaccinia virus Copenhagen
[48] = source organism: dengue virus type 1
[49] = source organism: Ephydatia fluviatilis
[50] = source organism: Sudan ebolavirus

Q: Which results are given for ALNTITNLK?
A: Kd [1, 41]: 0.0086 µM; Kd [2, 41]: 0.0414 µM

Q: With AWQRTLKWF as the sequence, how does the Kd ([3]; source organism: Escherichia coli str. K-12 substr. MG1655) read?
A: 0.11 µM

Q: Which results are given for CLVSGLSSL?
A: Kd ([4]; source organism: Mus musculus): ≥ 20 µM; Kd ([5]; source organism: Mus musculus): ≥ 20 µM; Kd ([6]; source organism: Mus musculus): ≥ 20 µM; Kd ([7]; source organism: Mus musculus): ≥ 20 µM; Kd ([8]; source organism: Mus musculus): ≥ 20 µM; Kd ([9]; source organism: Mus musculus): ≥ 20 µM; Kd ([10]; source organism: Mus musculus): ≥ 20 µM; Kd ([11]; source organism: Mus musculus): ≥ 20 µM; Kd ([3]; source organism: Mus musculus): ≥ 20 µM; Kd ([12]; source organism: Mus musculus): 0.0037 µM

Q: With ESSINISGY as the sequence, how does the Kd ([13]; source organism: Mammarenavirus juninense) read?
A: 0.346 µM

Q: What about the Kd ([14]; source organism: Mammarenavirus machupoense) of the same sequence?
A: 0.23 µM

Q: For ETFNTPAMY, which Kd ([13]; source organism: Homo sapiens) is on record?
A: 1.27 µM

Q: What about the Kd ([15]; source organism: Homo sapiens) of the same sequence?
A: 0.554 µM

Q: And the Kd ([1]; source organism: Homo sapiens)?
A: ≥ 38.9 µM

Q: What about the Kd ([14]; source organism: Entamoeba histolytica HM-1:IMSS) of the same sequence?
A: 0.01 µM

Q: And the Kd ([16]; source organism: Homo sapiens)?
A: 0.0596 µM

Q: And the Kd ([17]; source organism: Homo sapiens)?
A: 10.5 µM

Q: What about the Kd ([18]; source organism: Homo sapiens) of the same sequence?
A: ≥ 36.2 µM

Q: For GIPLYDAIK, which Kd [1, 42] is on record?
A: 7.78 µM

Q: What about the Kd [17, 42] of the same sequence?
A: ≥ 20 µM

Q: What about the Kd ([2]; source organism: Influenza A virus (A/X-31(H3N2))) of the same sequence?
A: ≥ 20 µM

Q: With GMSWITQGL as the sequence, how does the Kd [19, 43] read?
A: ≥ 20 µM

Q: What about the Kd [20, 43] of the same sequence?
A: ≥ 20 µM

Q: What about the Kd [13, 43] of the same sequence?
A: ≥ 20 µM

Q: And the Kd [1, 43]?
A: ≥ 20 µM

Q: What about the Kd [21, 43] of the same sequence?
A: ≥ 20 µM

Q: And the Kd [22, 43]?
A: ≥ 20 µM

Q: And the Kd [14, 43]?
A: ≥ 20 µM

Q: And the Kd [16, 43]?
A: 1.33 µM

Q: What about the Kd [17, 43] of the same sequence?
A: ≥ 20 µM

Q: And the Kd [23]?
A: ≥ 20 µM

Q: What about the Kd [24, 43] of the same sequence?
A: ≥ 20 µM

Q: What about the Kd [25, 43] of the same sequence?
A: ≥ 20 µM

Q: And the Kd [26, 43]?
A: ≥ 20 µM

Q: And the Kd [27, 43]?
A: ≥ 20 µM

Q: Which IC50 ([28]; source organism: Vaccinia virus WR) does the source give for GSLFTEQAF here?
A: 5.94 µM

Q: What does the source list for GVNACQVGV?
A: Kd [29]: 0.023 µM; Kd [21, 44]: 10.2 µM; Kd [16, 44]: 0.392 µM; Kd [25, 44]: 0.392 µM; Kd [18, 44]: 0.239 µM

Q: How did the Kd ([30]; source organism: Shigella boydii) turn out when IWWEQYMQY was run?
A: ≤ 0.0001 µM

Q: What does the source list for KMFTFWYMR?
A: Kd ([1]; source organism: Fowlpox virus): 0.0063 µM; Kd ([17]; source organism: Fowlpox virus): 0.387 µM; Kd ([2]; source organism: Fowlpox virus): 0.00137 µM

Q: Which Kd [31] does the source give for KPKHLYVSM here?
A: ≥ 20 µM

Q: What about the Kd [32] of the same sequence?
A: ≥ 20 µM

Q: And the Kd [19, 45]?
A: ≥ 20 µM

Q: What about the Kd [20, 45] of the same sequence?
A: ≥ 20 µM

Q: What about the Kd [13, 45] of the same sequence?
A: ≥ 20 µM

Q: What about the Kd [15, 45] of the same sequence?
A: ≥ 20 µM

Q: What about the Kd [1, 45] of the same sequence?
A: ≥ 20 µM

Q: What about the Kd [21, 45] of the same sequence?
A: ≥ 20 µM

Q: What about the Kd [22, 45] of the same sequence?
A: ≥ 20 µM

Q: What about the Kd [33] of the same sequence?
A: ≥ 20 µM

Q: What about the Kd [16, 45] of the same sequence?
A: ≥ 20 µM

Q: And the Kd [17, 45]?
A: ≥ 20 µM

Q: And the Kd [34]?
A: ≥ 20 µM

Q: What about the Kd [35] of the same sequence?
A: ≥ 20 µM

Q: What about the Kd [24, 45] of the same sequence?
A: ≥ 20 µM

Q: And the Kd [25, 45]?
A: ≥ 20 µM

Q: What about the Kd [26, 45] of the same sequence?
A: 0.254 µM

Q: What about the Kd [18, 45] of the same sequence?
A: ≥ 20 µM

Q: And the Kd [27, 45]?
A: 0.0844 µM

Q: What about the Kd [4, 45] of the same sequence?
A: ≥ 20 µM

Q: What about the Kd [5, 45] of the same sequence?
A: ≥ 20 µM

Q: What about the Kd [7, 45] of the same sequence?
A: ≥ 20 µM

Q: And the Kd [9, 45]?
A: ≥ 20 µM

Q: What about the Kd [11, 45] of the same sequence?
A: ≥ 20 µM

Q: KQKMFSNNV was tested. Which Kd [36] did it give?
A: 0.0193 µM

Q: What about the IC50 [28, 46] of the same sequence?
A: 44.4 µM

Q: And the IC50 [37, 46]?
A: ≥ 116 µM

Q: And the IC50 [38, 46]?
A: 7.07 µM

Q: With KTFKDESIF as the sequence, how does the IC50 [39, 47] read?
A: 24.2 µM

Q: And the IC50 [28, 47]?
A: 9.29 µM

Q: What about the IC50 [37, 47] of the same sequence?
A: 61 µM

Q: What about the IC50 [38, 47] of the same sequence?
A: 66.8 µM

Q: Which results are given for KVIDIDLER?
A: Kd ([1]; source organism: Mycobacterium tuberculosis): 0.0139 µM; Kd ([2]; source organism: Mycobacterium tuberculosis C): 0.0192 µM

Q: With SSMVNGVVR as the sequence, how does the Kd [1, 48] read?
A: 0.0261 µM

Q: And the Kd [2, 48]?
A: 0.0184 µM

Q: For TLKPGTMSV, which Kd [4, 49] is on record?
A: ≥ 20 µM

Q: And the Kd [5, 49]?
A: ≥ 20 µM

Q: And the Kd [6, 49]?
A: ≥ 20 µM

Q: And the Kd [30, 49]?
A: ≥ 20 µM

Q: What about the Kd [7, 49] of the same sequence?
A: ≥ 20 µM

Q: What about the Kd [8, 49] of the same sequence?
A: ≥ 20 µM

Q: And the Kd [9, 49]?
A: ≥ 20 µM

Q: And the Kd [10, 49]?
A: ≥ 20 µM

Q: And the Kd [11, 49]?
A: ≥ 20 µM

Q: What about the Kd [3, 49] of the same sequence?
A: ≥ 20 µM

Q: And the Kd [12, 49]?
A: 0.041 µM

Q: How did the IC50 [39, 50] turn out when VIILFQKAF was run?
A: 1.61 µM

Q: And the IC50 [28, 50]?
A: ≥ 143 µM

Q: What about the IC50 [38, 50] of the same sequence?
A: ≥ 544 µM

Q: With VLWDTPSPK as the sequence, how does the Kd [1, 43] read?
A: 0.0045 µM

Q: What about the Kd [2, 43] of the same sequence?
A: 0.0339 µM

Q: For WFSSGLWPF, which Kd [40] is on record?
A: ≥ 20 µM

Q: And the Kd ([3]; source organism: Nostoc punctiforme PCC 73102)?
A: 0.0039 µM

From the Immune Epitope Database (IEDB)
